Measurements: article doi:10.1101/2025.06.17.660173, “Twinfilin is a potent uncapper of actin capping protein and modulates actomyosin contractility in the C. elegans spermatheca” (bioRxiv, 2025)

Target: T1, biotinylated SNAP tagged C. elegans heterodimeric capping protein (CAP-1/CAP-2) (C. elegans, UniProt P34685 1-282; P34686 1-270, biotin on the SNAP tag (benzylguanine-biotin); the subunit that carries it is not stated | biotin on the SNAP tag (benzylguanine-biotin); the subunit that carries it is not stated)
T1 construct: CAP-1, a capping protein subunit of C. elegans; CAP-2, a capping protein subunit of C. elegans; The complex was anchored to streptavidin-coated coverslips by the biotin; also called SNAP-CP; CP; source: E. coli BL21 DE3, purified (HisTrap, Superose 6), labelled with benzylguanine-biotin; not shown: His tag (from the HisTrap purification)
T1 sequence (looked up) 1: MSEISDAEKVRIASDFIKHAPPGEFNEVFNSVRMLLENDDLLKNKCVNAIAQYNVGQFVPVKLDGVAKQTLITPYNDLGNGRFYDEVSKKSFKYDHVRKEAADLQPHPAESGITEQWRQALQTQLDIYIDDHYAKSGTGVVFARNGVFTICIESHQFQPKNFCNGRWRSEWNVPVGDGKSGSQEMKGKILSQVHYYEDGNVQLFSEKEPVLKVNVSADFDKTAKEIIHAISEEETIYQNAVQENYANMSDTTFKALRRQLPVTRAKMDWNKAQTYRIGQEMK
T1 sequence (looked up) 2: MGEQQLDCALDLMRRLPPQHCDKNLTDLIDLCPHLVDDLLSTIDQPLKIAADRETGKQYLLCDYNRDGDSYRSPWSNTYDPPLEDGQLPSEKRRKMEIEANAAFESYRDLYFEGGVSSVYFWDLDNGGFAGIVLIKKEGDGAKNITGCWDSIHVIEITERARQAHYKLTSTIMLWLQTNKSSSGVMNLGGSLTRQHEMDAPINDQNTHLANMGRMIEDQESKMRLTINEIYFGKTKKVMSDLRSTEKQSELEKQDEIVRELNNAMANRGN
Assay: mf-TIRF microscopy uncapping assay; biotinylated SNAP-CP anchored to the coverslip; preformed Alexa-488-labelled (15%) ADP-actin filaments captured; filament detachment followed with and without TWF-2 in TIRF buffer (10 mM imidazole pH 7.4, 50 mM KCl, 1 mM MgCl2, 1 mM EGTA, 0.2 mM ATP, 10 mM DTT); survival fitted to a single exponential
Settings: both partners purified

B1: C. elegans TWF-2 (6×His-tagged), recombinant (natural protein, UniProt Q20173 1-333, looked up)
chain: MACQTGIRANAALRNALNLGKQAKLRLIKIVVNNEEMTPNYEFAGTANWRDDWRACLPDCVDAYEPCFILFRLNTITEWVLITFVDDRAPVREKMLLAATCATFKSEFGQCYIEHEKHVTDLKDLTLNAFEAWLKAKTELGPMSEVERELHNAQQERAAIAHAGPQHMKGVAFPVDRNAEEALRQLASQKLSFVQLSVDTLNEAIKLEGTLESLEPSQLASKVPRDKPRYTFYNFDHTWEGVPQQCTLFIYSLPSSGSSIKERMLYSSCKGPFLSAAQNQYGVVITNKMEVDARDDLSEKALLEVIHPLPVEAPKQFSRPAPPRAGPRRITKV
notes: TWF-2, the sole twinfilin ortholog of C. elegans; also called twinfilin; C. elegans twinfilin; source: E. coli BL21 (pRare), purified (Ni-NTA, Superdex 75 Increase)
fold acceleration of uncapping of CP from actin filaments: > 90 fold
